Test results taken from publication PMC5213842, “Characterization and Crystal Structure of a Robust Cyclohexanone Monooxygenase” (Angewandte Chemie (International Ed. in English), 2016).

Legend:
O=C1CC2C=CCC12 = assay: purified protein
O=C1CCC1 = assay: purified protein
O=C1CCCCC1 = assay: purified protein
TfPAMO = target: T1, TfPAMO (Thermobifida fusca, UniProt Q47PU3); assay: small-scale conversion; type: biochemical; settings: racemic substrate; enzyme preparation not given
T1 construct: gene pamO

TmCHMO = target: T2, TmCHMO (Thermocrispum municipale, UniProt A0A1L1QK39); set-up: steady-state kinetics, NADPH consumption followed by absorbance at 340 nm; settings: 150 uM NADPH, pH 7.0, 25 °C; substrate
T2 construct: purified recombinant enzyme (E. coli used as expression host for whole-cell work)
T2 sequence (A0A1L1QK39 1-541): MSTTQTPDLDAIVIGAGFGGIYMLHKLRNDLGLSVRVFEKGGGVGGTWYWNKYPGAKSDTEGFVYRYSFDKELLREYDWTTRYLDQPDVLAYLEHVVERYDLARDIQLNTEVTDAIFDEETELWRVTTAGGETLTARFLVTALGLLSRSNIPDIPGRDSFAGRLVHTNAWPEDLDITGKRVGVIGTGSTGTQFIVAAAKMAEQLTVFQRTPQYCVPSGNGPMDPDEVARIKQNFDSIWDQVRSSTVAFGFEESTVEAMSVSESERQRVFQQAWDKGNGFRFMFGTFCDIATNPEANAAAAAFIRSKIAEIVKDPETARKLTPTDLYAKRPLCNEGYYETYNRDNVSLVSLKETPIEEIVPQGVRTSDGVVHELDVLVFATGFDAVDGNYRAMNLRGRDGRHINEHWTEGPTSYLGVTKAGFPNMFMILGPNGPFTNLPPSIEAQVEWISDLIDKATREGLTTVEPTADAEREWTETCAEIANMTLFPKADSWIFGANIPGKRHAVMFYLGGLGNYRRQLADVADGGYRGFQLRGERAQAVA
Protocol: Steady-State Kinetics. Steady-state kinetic parameters for purified TmCHMO and AcCHMO were determined using a V-660 spectrophotometer (Jasco). Enzyme (0.02-4 μM), NADPH (150 μM), and increasing substrate concentrations were reacted in air-saturated 50 mM Tris-HCl at pH 7.0 and 25 °C. The rate of NADPH consumption was determined by following the decrease in absorbance at 340 nm (ɛ340 = 6.22 mM-1 cm-1 ). The initial rates of the reactions were plotted as a function of the substrate concentrations. […] Among the assayed compounds (Figure S3), only progesterone and cyclopentadecanone (50 μM) were not substrates of either enzyme based on the NADPH consumption assay. 19 4. EXPERIMENTAL SECTION Materials. NADPH was acquired from Jülich Chiral Solutions GmbH. All other materials were acquired from Sigma-Aldrich unless otherwise specified. Cloning of TmCHMO and BVMOs Purification. The amino acid sequence of a putative CHMO from the thermophilic actinomycete T. municipale DSM 44069 was retrieved from the NCBI database (http://www.ncbi.nlm.nih.gov). This organism is able to grow at 28-60 °C.[8] The TmCHMO sequence was found by carrying out a BLASTP (http://blast.ncbi.nlm.nih.gov/Blast.cgi) using the amino acid sequence of AcCHMO as a query sequence. A codon-optimized TmCHMO gene was synthetized and cloned into pUC57 plasmid by GenScript. […]

steady-state kinetics [1] = substrate: O=C1CC2C=CCC12; assay: steady-state kinetics; type: biochemical, Thermocrispum municipale
steady-state kinetics [2] = substrate: O=C1CCC1; assay: steady-state kinetics; type: biochemical, Thermocrispum municipale
steady-state kinetics [3] = substrate: O=C1CCCCC1; assay: steady-state kinetics; type: biochemical, Thermocrispum municipale
[4] = substrate: CC(=O)Cc1ccccc1; assay: purified protein, by the assay type; set-up: steady-state kinetics, NADPH consumption followed by absorbance at 340 nm; settings: pH 7.0; 25.0 °C
Protocol: (§1) Steady-State Kinetics. Steady-state kinetic parameters for purified TmCHMO and AcCHMO were determined using a V-660 spectrophotometer (Jasco). Enzyme (0.02-4 μM), NADPH (150 μM), and increasing substrate concentrations were reacted in air-saturated 50 mM Tris-HCl at pH 7.0 and 25 °C. The rate of NADPH consumption was determined by following the decrease in absorbance at 340 nm (ɛ340 = 6.22 mM-1 cm-1 ). The initial rates of the reactions were plotted as a function of the substrate concentrations. […] Among the assayed compounds (Figure S3), only progesterone and cyclopentadecanone (50 μM) were not substrates of either enzyme based on the NADPH consumption assay. 19 4. EXPERIMENTAL SECTION Materials. NADPH was acquired from Jülich Chiral Solutions GmbH. All other materials were acquired from Sigma-Aldrich unless otherwise specified. Cloning of TmCHMO and BVMOs Purification. The amino acid sequence of a putative CHMO from the thermophilic actinomycete T. municipale DSM 44069 was retrieved from the NCBI database (http://www.ncbi.nlm.nih.gov). This organism is able to grow at 28-60 °C.[8] The TmCHMO sequence was found by carrying out a BLASTP (http://blast.ncbi.nlm.nih.gov/Blast.cgi) using the amino acid sequence of AcCHMO as a query sequence. A codon-optimized TmCHMO gene was synthetized and cloned into pUC57 plasmid by GenScript. The TmCHMO gene was subcloned using standard methods into the pCRE2 plamid[9] with XhoI and HindIII restriction sites at the 5’ end and 3’ end, respectively. The resulting plasmid is a pBAD vector harboring a gene encoding TmCHMO fused to the C-terminus of a thermostable variant of phosphite dehydrogenase (PTDH). A histidine tag at the N-terminus of the PTDH is also included in this construct. The same construct containing either the AcCHMO gene or the TfPAMO gene, instead of the TmCHMO gene, was carried out for a previous study[9] and used here to obtain the corresponding fusion proteins. The TmCHMO gene was also subcloned into a pBAD plasmid containing the SUMO (small ubiquitin-related modifier) gene with a N-terminal histidine tag (pBAD-His-Tag-SUMO-TmCHMO).

[5] = substrate: CC(=O)c1ccccc1; assay: purified protein, by the assay type; set-up: steady-state kinetics, NADPH consumption followed by absorbance at 340 nm; settings: pH 7.0; 25.0 °C
Protocol: as §1

[6] = substrate: CCC(C)=O; assay: purified protein, by the assay type; set-up: steady-state kinetics, NADPH consumption followed by absorbance at 340 nm; settings: pH 7.0; 25.0 °C
Protocol: as §1

[7] = substrate: CCCCCCC(C)=O; assay: purified protein, by the assay type; set-up: steady-state kinetics, NADPH consumption followed by absorbance at 340 nm; settings: pH 7.0; 25.0 °C
Protocol: as §1

[8] = substrate: CCCCCCCCC(C)=O; assay: purified protein, by the assay type; set-up: steady-state kinetics, NADPH consumption followed by absorbance at 340 nm; settings: pH 7.0; 25.0 °C
Protocol: as §1

[9] = substrate: O=C1CCCC1; assay: purified protein, by the assay type; set-up: steady-state kinetics, NADPH consumption followed by absorbance at 340 nm; settings: pH 7.0; 25.0 °C
Protocol: as §1

T1 sequence (Q47PU3 whole entry): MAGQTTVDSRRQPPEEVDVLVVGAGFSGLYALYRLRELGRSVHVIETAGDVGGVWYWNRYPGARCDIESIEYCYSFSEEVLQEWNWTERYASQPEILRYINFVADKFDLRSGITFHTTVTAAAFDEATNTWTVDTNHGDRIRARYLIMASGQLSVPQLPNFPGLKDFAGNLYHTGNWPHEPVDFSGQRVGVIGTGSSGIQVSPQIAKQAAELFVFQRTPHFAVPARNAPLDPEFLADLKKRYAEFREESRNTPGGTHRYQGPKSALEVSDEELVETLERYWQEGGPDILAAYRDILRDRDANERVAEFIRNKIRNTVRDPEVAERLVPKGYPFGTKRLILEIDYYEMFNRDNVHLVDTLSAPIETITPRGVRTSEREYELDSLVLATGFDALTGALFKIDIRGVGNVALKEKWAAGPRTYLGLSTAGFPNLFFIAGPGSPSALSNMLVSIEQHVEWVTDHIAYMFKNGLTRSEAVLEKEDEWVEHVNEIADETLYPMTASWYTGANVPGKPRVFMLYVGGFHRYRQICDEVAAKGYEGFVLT

How did the kcat (O=C1CC2C=CCC12) turn out when AcCHMO (Acinetobacter johnsonii) was run?
Its kcat is 4 s⁻¹.

What about the kcat (O=C1CCC1) of the same molecule?
Its kcat is 4 s⁻¹.

And the Km (O=C1CCCCC1)?
Its Km is 9 µM.

What about the kcat (O=C1CCCCC1) of the same molecule?
Its kcat is 6 s⁻¹.

For `O=C1CC2C=CCC12` (racemic) [bicyclo[3.2.0]hept‐2‐en‐6‐one], which small-scale conversion (TfPAMO) is on record?
The small-scale conversion was “By contrast, TfPAMO produced all four possible lactones”.

With `CSc1ccccc1` [thioanisole] as the molecule, how does the Km (TmCHMO) read?
Its Km is < 60 µM.

B1: TmCHMO (Thermocrispum municipale DSM 44069) (protein)
chain: MSTTQTPDLDAIVIGAGFGGIYMLHKLRNDLGLSVRVFEKGGGVGGTWYWNKYPGAKSDTEGFVYRYSFDKELLREYDWTTRYLDQPDVLAYLEHVVERYDLARDIQLNTEVTDAIFDEETELWRVTTAGGETLTARFLVTALGLLSRSNIPDIPGRDSFAGRLVHTNAWPEDLDITGKRVGVIGTGSTGTQFIVAAAKMAEQLTVFQRTPQYCVPSGNGPMDPDEVARIKQNFDSIWDQVRSSTVAFGFEESTVEAMSVSESERQRVFQQAWDKGNGFRFMFGTFCDIATNPEANAAAAAFIRSKIAEIVKDPETARKLTPTDLYAKRPLCNEGYYETYNRDNVSLVSLKETPIEEIVPQGVRTSDGVVHELDVLVFATGFDAVDGNYRAMNLRGRDGRHINEHWTEGPTSYLGVTKAGFPNMFMILGPNGPFTNLPPSIEAQVEWISDLIDKATREGLTTVEPTADAEREWTETCAEIANMTLFPKADSWIFGANIPGKRHAVMFYLGGLGNYRRQLADVADGGYRGFQLRGERAQAVA
notes: purified recombinant enzyme (E. coli used as expression host for whole-cell work)
With B1 as the molecule, how does the kcat (steady-state kinetics [1]) read?
Its kcat is 2 s⁻¹.

What about the kcat (steady-state kinetics [2]) of the same molecule?
Its kcat is 2 s⁻¹.

And the kcat (steady-state kinetics [3])?
The kcat was 2 s⁻¹.

What about the Km [4] of the same molecule?
The Km was 200 µM.

What about the Km [5] of the same molecule?
Its Km is 5000 µM.

What about the Km [6] of the same molecule?
The Km was 500 µM.

What about the Km [7] of the same molecule?
The Km was 100 µM.

And the Km [8]?
The Km was 50 µM.

What about the Km [9] of the same molecule?
The Km was 20 µM.
